The values that follow come from PMC5737080.

Where two headings read alike, the source gives them in different places.

Assay [1] has as its target β-S109C/Q299C-(AF488)2 (E. coli) (UniProt P0A988). Briefly: other fluorescence titration.
For assay [2], the target named is β-S109C/Q299C/R103S-(AF488)2 (E. coli) (UniProt P0A988). In words: other fluorescence titration.
Assay [3] addresses β-R103C/I305C-(AF488)2 (E. coli) (UniProt P0A988). Briefly: stopped-flow fluorescence kinetics.
For the next assay, the target named is β-S109C-AF488 (E. coli) (UniProt P0A988). Briefly: stopped-flow fluorescence kinetics.
Assay [4] addresses β-S109C/Q299C/R103S-(AF488)2 (E. coli) (UniProt P0A988). In words: stopped-flow fluorescence kinetics.
Assay [5] addresses β-S109C/Q299C-(AF488)2 (E. coli) (UniProt P0A988). Briefly: other fluorescence titration. This is another data set of the same source.
For assay [6], the target named is β-S109C/Q299C/R103S-(AF488)2 (E. coli) (UniProt P0A988). Briefly: other fluorescence titration. This is another data set of the same source.
For assay [7] the target is unchanged. In words: stopped-flow fluorescence kinetics. This is another data set of the same source.

With “E. coli clamp loader, γ complex (γ3δδ’ψχ subunits) (from UniProt P06710-2;P28630;P28631;P28905;P28632)”, in assay [1], the equilibrium dissociation constant (Kd) stood at 5.3 nM. In addition, in assay [2], the equilibrium dissociation constant (Kd) came to 5 nM. In addition, in assay [3], the k close (reverse of step 2 of the bind-open-lock model) is 4 s⁻¹; the k open (step 2 of the bind-open-lock model) was 9 s⁻¹; the koff, fast phase (k f) is 0.058 s⁻¹; the koff, slow phase (k s) was 0.011 s⁻¹. Besides, in assay [3], the limiting observed rate constant, rapid phase of opening is 11 s⁻¹ and the limiting observed rate constant, slow phase of opening amounted to 1.5 s⁻¹. Further, in the assay with β-S109C-AF488 (E. coli), the maximum observed rate constant, slow phase (clamp opening step) worked out at 8 s⁻¹. In assay [4], this substance displayed a koff, fast phase (k f) of 0.039 s⁻¹ and a koff, slow phase (k s) of 0.0098 s⁻¹. This substance also yielded a Kd in assay [5] of 7 nM. Moreover, the Kd in assay [6] was 4.2 nM. In assay [7], this substance returned a koff, fast phase (k f) of 0.046 s⁻¹ and a koff, slow phase (k s) of 0.012 s⁻¹.

By Kd is commonly meant a measure of binding affinity in units of concentration. Higher therefore signals a looser complex.
